Where a chain is given by its changes, count along the chain named. In names and notes the source's numbering stands.
B1: IL-18 variant G3Q, E6D, K53S, D54I, S55E, T63S, N91S, R104Q (ligand)
chain: YFQKLDSKLSVIRNLNDQVLFIDQGNRPLFEDMTDSDMRDNAPRTIFIISMYSIEQPRGMAVSISVKSEKISTLSSENKIISFKEMNPPDSIKDTKSDIIFFQQSVPGHDNKMQFESSSYEGYFLASEKERDLFKLILKKEDELGDRSIMFTVQNED
B2: IL-18 variant E6N, D54N, S55N, N91H, R104P (ligand)
chain: B1 chain with Q3G, D6N, S53K, I54N, E55N, S63T, S91H, Q104P
B3: IL-18 variant G3P, E6K, K53N, D54S, S55P, T63S, N91S, R104Q (ligand)
chain: B1 chain with Q3P, D6K, S53N, I54S, E55P
B4: IL-18 variant G3Q, E6N, K53T, D54A, N91K, R104P (ligand)
chain: B1 chain with D6N, S53T, I54A, E55S, S63T, S91K, Q104P
B5: IL-18 variant G3L, E6Q, T63S, N91L, R104P (ligand)
chain: B1 chain with Q3L, D6Q, S53K, I54D, E55S, S91L, Q104P
B6: IL-18 variant G3P, E6R, K53T, D54Y, S55I, T63V, N91G, R104K (ligand)
chain: B1 chain with Q3P, D6R, S53T, I54Y, E55I, S63V, S91G, Q104K
B7: IL-18 variant G3Q, E6H, S7Y, D23A, R27S, D54S, S55R, T63F, N91F, R104Q (ligand)
chain: B1 chain with D6H, S7Y, D23A, R27S, S53K, I54S, E55R, S63F, S91F
B8: IL-18 variant G3P, E6S, K53R, D54Y, S55P, T63I, N91K (ligand)
chain: B1 chain with Q3P, D6S, S53R, I54Y, E55P, S63I, S91K, Q104R
B9: IL-18 variant G3P, E6S, K53N, D54Y, S55P, T63I, N91K, R104H (ligand)
chain: B1 chain with Q3P, D6S, S53N, I54Y, E55P, S63I, S91K, Q104H
B10: IL-18 variant G3P, E6D, K53T, D54N, T63A, N91T, R104P (ligand)
chain: B1 chain with Q3P, S53T, I54N, E55S, S63A, S91T, Q104P
B11: IL-18 variant G3S, E6H, K53Y, D54P, S55Y, T63S, N91A, R104S (ligand)
chain: B1 chain with Q3S, D6H, S53Y, I54P, E55Y, S91A, Q104S
B12: IL-18 variant G3P, E6K, K53T, D54Y, S55V, T63I, N91I (ligand)
chain: B1 chain with Q3P, D6K, S53T, I54Y, E55V, S63I, S91I, Q104R
B13: IL-18 variant G3P, E6N, D54Y, T63S, N91S, R104Q (ligand)
chain: B1 chain with Q3P, D6N, S53K, I54Y, E55S
B14: IL-18 variant G3P, E6G, D54P, S55W, N91E, R104K (ligand)
chain: B1 chain with Q3P, D6G, S53K, I54P, E55W, S63T, S91E, Q104K
B15: IL-18 variant K53T, D54H, S55V, T63A, N91K (ligand)
chain: B1 chain with Q3G, D6E, S53T, I54H, E55V, S63A, S91K, Q104R
B16: IL-18 variant E6T, D54P, S55K, R104S (ligand)
chain: B1 chain with Q3G, D6T, S53K, I54P, E55K, S63T, S91N, Q104S
B17: IL-18 variant G3R, E6D, D54A, S55Q, T63S, N91K, R104P (ligand)
chain: B1 chain with Q3R, S53K, I54A, E55Q, S91K, Q104P

molecular target: T1, IL-18 receptors on HEK-Blue IL-18 reporter cells (UniProt Q13478 19-541; O95256 20-599, limits assumed); test: cell-based or functional assay
T1 sequence (looked up) 1: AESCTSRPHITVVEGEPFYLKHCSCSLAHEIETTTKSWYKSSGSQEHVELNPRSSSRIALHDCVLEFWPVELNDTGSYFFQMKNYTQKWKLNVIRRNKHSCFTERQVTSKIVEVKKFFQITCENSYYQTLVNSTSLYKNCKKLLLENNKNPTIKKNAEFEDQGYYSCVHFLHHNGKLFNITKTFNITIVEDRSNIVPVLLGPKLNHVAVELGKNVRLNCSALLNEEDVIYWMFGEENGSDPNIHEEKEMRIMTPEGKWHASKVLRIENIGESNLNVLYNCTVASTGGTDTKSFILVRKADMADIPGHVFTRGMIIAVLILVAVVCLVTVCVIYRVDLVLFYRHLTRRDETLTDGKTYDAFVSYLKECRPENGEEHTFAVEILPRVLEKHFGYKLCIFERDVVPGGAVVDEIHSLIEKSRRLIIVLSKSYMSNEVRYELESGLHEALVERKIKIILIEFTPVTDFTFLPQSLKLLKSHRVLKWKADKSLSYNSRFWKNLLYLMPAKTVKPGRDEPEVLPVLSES
T1 sequence (looked up) 2: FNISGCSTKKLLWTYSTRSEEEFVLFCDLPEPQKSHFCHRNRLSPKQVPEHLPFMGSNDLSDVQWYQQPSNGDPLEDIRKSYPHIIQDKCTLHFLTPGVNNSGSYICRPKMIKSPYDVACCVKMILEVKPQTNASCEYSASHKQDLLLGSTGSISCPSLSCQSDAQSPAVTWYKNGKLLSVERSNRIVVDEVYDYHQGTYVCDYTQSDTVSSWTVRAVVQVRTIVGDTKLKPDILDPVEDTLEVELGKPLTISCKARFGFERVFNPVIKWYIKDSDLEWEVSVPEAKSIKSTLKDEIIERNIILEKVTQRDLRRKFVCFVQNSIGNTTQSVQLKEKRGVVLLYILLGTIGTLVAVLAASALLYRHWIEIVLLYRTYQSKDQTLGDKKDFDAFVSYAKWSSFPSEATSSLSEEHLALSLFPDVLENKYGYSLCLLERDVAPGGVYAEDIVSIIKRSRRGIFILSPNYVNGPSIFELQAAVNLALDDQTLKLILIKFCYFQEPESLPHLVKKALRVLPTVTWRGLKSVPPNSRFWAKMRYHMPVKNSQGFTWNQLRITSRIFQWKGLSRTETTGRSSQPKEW

In order of rising “Activity, No BP, DF-100000” value:
1. B3  0.07
2. B4  0.07
3. B9  0.07
4. B10  0.07
5. B17  0.07
6. B2  0.08
7. B7  0.08
8. B1  0.09
9. B11  0.09
10. B14  0.09
11. B6  0.14
12. B5  0.15
13. B8  0.15
14. B16  0.17
15. B13  0.21
16. B12  0.26
17. B15  0.28

In order of rising “Activity, No BP, DF-500000” value:
1. B1  0.07
2. B2  0.07
3. B9  0.07
4. B10  0.07
5. B3  0.08
6. B4  0.08
7. B6  0.08
8. B7  0.08
9. B8  0.08
10. B14  0.08
11. B17  0.08
12. B5  0.09
13. B11  0.09
14. B16  0.09
15. B13  0.1
16. B12  0.11
17. B15  0.12

In order of falling “Activity, No BP, DF-2500000” value:
1. B15  0.12
2. B5  0.1
3. B16  0.1
4. B1  0.07
5. B2  0.07
6. B3  0.07
7. B4  0.07
8. B6  0.07
9. B7  0.07
10. B8  0.07
11. B9  0.07
12. B10  0.07
13. B11  0.07
14. B12  0.07
15. B13  0.07
16. B14  0.07
17. B17  0.07

molecular target: T2, IL-18 binding protein (IL-18BP) (UniProt O95998 31-194); test: cell-based or functional assay
T2 sequence (looked up): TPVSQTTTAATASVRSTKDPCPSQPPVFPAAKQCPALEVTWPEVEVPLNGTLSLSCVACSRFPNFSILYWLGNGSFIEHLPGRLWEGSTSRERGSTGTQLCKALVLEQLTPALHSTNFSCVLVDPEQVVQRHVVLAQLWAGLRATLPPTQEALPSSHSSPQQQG

In order of falling “Activity, +100 nM BP, DF-1000002” value:
1. B12  0.32
2. B13  0.25
3. B15  0.23
4. B16  0.18
5. B6  0.15
6. B8  0.14
7. B1  0.12
8. B5  0.1
9. B14  0.09
10. B2  0.08
11. B3  0.07
12. B4  0.07
13. B7  0.07
14. B9  0.07
15. B10  0.07
16. B11  0.07
17. B17  0.07

In order of rising “Activity, +100 nM BP, DF-5000003” value:
1. B3  0.07
2. B9  0.07
3. B2  0.08
4. B5  0.08
5. B6  0.08
6. B7  0.08
7. B8  0.08
8. B10  0.08
9. B11  0.08
10. B17  0.08
11. B1  0.09
12. B4  0.09
13. B16  0.09
14. B13  0.1
15. B14  0.1
16. B15  0.1
17. B12  0.11

In order of rising “Activity, +100 nM BP, DF-25000004” value:
1. B3  0.07
2. B5  0.07
3. B6  0.07
4. B7  0.07
5. B8  0.07
6. B9  0.07
7. B10  0.07
8. B14  0.07
9. B15  0.07
10. B17  0.07
11. B4  0.08
12. B11  0.08
13. B12  0.08
14. B13  0.08
15. B16  0.08
16. B2  0.09
17. B1  0.11

In order of rising “Ratio (-BP/+BP), DF-1000005” value:
1. B1  0.73
2. B12  0.81
3. B13  0.86
4. B3  0.92
5. B6  0.93
6. B10  0.95
7. B14  0.98
8. B16  0.98
9. B17  0.98
10. B2  0.99
11. B4  1.03
12. B9  1.03
13. B8  1.07
14. B7  1.12
15. B11  1.18
16. B15  1.18
17. B5  1.44

In order of falling “Ratio (-BP/+BP), DF-5000006” value:
1. B15  1.24
2. B5  1.11
3. B11  1.1
4. B3  1.03
5. B13  1.02
6. B7  1.01
7. B12  1.01
8. B16  0.99
9. B17  0.98
10. B8  0.97
11. B6  0.96
12. B9  0.94
13. B2  0.93
14. B10  0.92
15. B4  0.89
16. B14  0.84
17. B1  0.8

In order of rising “Ratio (-BP/+BP), DF-25000007” value:
1. B1  0.68
2. B2  0.78
3. B13  0.89
4. B14  0.92
5. B12  0.93
6. B3  0.95
7. B4  0.95
8. B9  0.95
9. B11  0.95
10. B17  0.96
11. B6  0.99
12. B8  0.99
13. B10  1.01
14. B7  1.04
15. B16  1.3
16. B5  1.34
17. B15  1.58

From patent US20240182536A1 (MURAL ONCOLOGY, published 2024)
